From the supplement of paper PMC10567573

B1: WSB1 (parent)
chain: FSHDGLHVASLADDKMVRFWRIDE

Variants of: B1
Experiment: protein stability index of a GFP-peptide fusion (GPS, HEK-293T) (PSI 1-6); higher = more stable
Settings: c terminus: a fixed tail appended
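Also: lentivirally expressed fusions sorted by FACS into six bins by GFP to DsRed ratio, PSI derived from sequencing read proportions per bin multiplied by bin number.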

| Variant | protein stability index |
| --- | --- |
| FSHDGLHVASLADDKMVRYWRIDE | 2.33 |
| FSHDGLHVASLADDKMVRWWRIDE | 1.57 |
| FSHDGLHVASLADDKMVRNWRIDE | 2.62 |
| FSHDGLHVASLADDKMVRGWRIDE | 2.38 |
| FSHDGLHVASLADDKMVRIWRIDE | 1.49 |
| FSHDGLHVASPADDKMVRFWRIDE | 1.47 |
| FSHDGLHVASEADDKMVRFWRIDE | 1.65 |
| FSHDGLHVASGADDKMVRFWRIDE | 1.71 |
| FSHDGLHVASYADDKMVRFWRIDE | 1.3 |
| FSHDGLHVASSADDKMVRFWRIDE | 1.05 |
| FSHDGLHVASDADDKMVRFWRIDE | 2.06 |
| FSHDGLHVASIADDKMVRFWRIDE | 2.2 |
| FSHDGLHVASNADDKMVRFWRIDE | 1.78 |
| FSHDGLHVASMADDKMVRFWRIDE | 1.69 |
| FSHDGLHVASAADDKMVRFWRIDE | 2.24 |
| FSHDGLHVASFADDKMVRFWRIDE | 2.5 |
| FSHDGLHVASVADDKMVRFWRIDE | 2.03 |
| FSHDGLHVASQADDKMVRFWRIDE | 1.67 |
| FSHDGLHVASHADDKMVRFWRIDE | 2.98 |
| FSHDGLHVASRADDKMVRFWRIDE | 1.66 |
| FSHDGLHVASKADDKMVRFWRIDE | 2.24 |
| FSHDGLHVASLPDDKMVRFWRIDE | 1.57 |
| FSHDGLHVASLTDDKMVRFWRIDE | 1.79 |
| FSHDGLHVASLNDDKMVRFWRIDE | 2.43 |

| Variant | protein stability index |
| --- | --- |
| FSHDGLHVASLGDDKMVRFWRIDE | 3.04 |
| FSHDGLHVASLDDDKMVRFWRIDE | 2.32 |
| FSHDGLHVASLWDDKMVRFWRIDE | 1.23 |
| FSHDGLHVASLKDDKMVRFWRIDE | 1.71 |
| FSHDGLHVASLQDDKMVRFWRIDE | 2.55 |
| FSHDGLHVASLLDDKMVRFWRIDE | 2.04 |
| FSHDGLHVASLYDDKMVRFWRIDE | 1.66 |
| FSHDGLHVASLSDDKMVRFWRIDE | 1.35 |
| FSHDGLHVASLCDDKMVRFWRIDE | 1.95 |
| FSHDGLHVASLIDDKMVRFWRIDE | 1.93 |
| FSHDGLHVASLHDDKMVRFWRIDE | 2.99 |
| FSHDGLHVASLVDDKMVRFWRIDE | 1.75 |
| FSHDGLHVASLARDKMVRFWRIDE | 1.42 |
| FSHDGLHVASLAPDKMVRFWRIDE | 1.56 |
| FSHDGLHVASLAIDKMVRFWRIDE | 1.21 |
| FSHDGLHVASLAHDKMVRFWRIDE | 3.41 |
| FSHDGLHVASLAGDKMVRFWRIDE | 1.04 |
| FSHDGLHVASLAADKMVRFWRIDE | 1.02 |
| FSHDGLHVASLAWDKMVRFWRIDE | 2.68 |
| FSHDGLHVASLAVDKMVRFWRIDE | 2.03 |
| FSHDGLHVASLATDKMVRFWRIDE | 1.36 |
| FSHDGLHVASLAMDKMVRFWRIDE | 1.22 |
| FSHDGLHVASLANDKMVRFWRIDE | 2.09 |
| FSHDGLHVASLACDKMVRFWRIDE | 1.02 |

| Variant | protein stability index |
| --- | --- |
| FSHDGLHVASLALDKMVRFWRIDE | 2.13 |
| FSHDGLHVASLAKDKMVRFWRIDE | 1.88 |
| FSHDGLHVASLAEDKMVRFWRIDE | 1.31 |
| FSHDGLHVASLADDKSVRFWRIDE | 2.12 |
| FSHDGLHVASLADDKIVRFWRIDE | 1.4 |
| FSHDGLHVASLADDKEVRFWRIDE | 1.88 |
| FSHDGLHVASLADDKHVRFWRIDE | 2.45 |
| FSHDGLHVASLADDKWVRFWRIDE | 1.57 |
| FSHDGLHVASLADDKPVRFWRIDE | 2.05 |
| FSHDGLHVASLADDKTVRFWRIDE | 1.16 |
| FSHDGLHVASLADDKGVRFWRIDE | 1.83 |
| FSHDGLHVASLADDKCVRFWRIDE | 2.98 |
| FSHDGLHVASLADDKLVRFWRIDE | 1.56 |
| FSHDGLHVASLADDKYVRFWRIDE | 1.66 |
| FSHDGLHVASLADDKKVRFWRIDE | 2.23 |
| FSHDGLHVASLADDKRVRFWRIDE | 2.76 |
| FSHDGLHVASLADDKNVRFWRIDE | 1.36 |
| FSHDGLHVASLADDKAVRFWRIDE | 1.57 |
| FSHDGLHVASLADDKVVRFWRIDE | 2.88 |
| FSHDGLHVASLADDKMVTFWRIDE | 1.08 |
| FSHDGLHVASLADDKMVSFWRIDE | 1.31 |
| FSHDGLHVASLADDKMVKFWRIDE | 2.12 |
| FSHDGLHVASLADDKMVDFWRIDE | 2.03 |
| FSHDGLHVASLADDKMVMFWRIDE | 2.37 |

| Variant | protein stability index |
| --- | --- |
| FSHDGLHVASLADDKMVYFWRIDE | 1.89 |
| FSHDGLHVASLADDKMVCFWRIDE | 1.43 |
| FSHDGLHVASLADDKMVQFWRIDE | 2.01 |
| FSHDGLHVASLADDKMVEFWRIDE | 1.92 |
| FSHDGLHVASLADDKMVPFWRIDE | 1.83 |
| FSHDGLHVASLADDKMVGFWRIDE | 1.26 |
| FSHDGLHVASLADDKMVLFWRIDE | 1.32 |
| FSHDGLHVASLADDKMVAFWRIDE | 1.41 |
| FSHDGLHVASLADDKMVIFWRIDE | 2.23 |
| FSHDGLHVAALADDKMVRFWRIDE | 1.74 |
| FSHDGLHVADLADDKMVRFWRIDE | 2.03 |
| FSHDGLHVALLADDKMVRFWRIDE | 1.87 |
| FSHDGLHVAQLADDKMVRFWRIDE | 1.82 |
| FSHDGLHVAKLADDKMVRFWRIDE | 2.84 |
| FSHDGLHVAPLADDKMVRFWRIDE | 1.63 |
| FSHDGLHVAILADDKMVRFWRIDE | 1.69 |
| FSHDGLHVAELADDKMVRFWRIDE | 2.02 |
| FSHDGLHVAGLADDKMVRFWRIDE | 1.65 |
| FSHDGLHVAVLADDKMVRFWRIDE | 1.11 |
| FSHDGLHVAFLADDKMVRFWRIDE | 3.47 |
| FSHDGLHVANLADDKMVRFWRIDE | 1.75 |
| FSHDGLHVATLADDKMVRFWRIDE | 1.64 |
